Results published in US20250361274A1, “PEPTIDE AND PEPTIDE-CONTAINING AGENT” (PEPTIDREAM INC., priority 2022, published 2025).
Numbered stars: 1 amine (or outer) side, 2 acyl side, 3 side chain; on linkers, the order of the positions; unused ones are H or OH. Bridge positions count the residues as written; N and C are the ends. Square brackets hold non-standard residues; d marks the D form. Side chains are listed from the residue outwards. Ends that are not written are not given here. Peptide text beside a SMILES is read from it. I, II: the chains in the order shown. * marks the point of attachment. ξ: configuration not given here. KCOpipzaa = N6-(4-(carboxymethyl)piperazine-1-carbonyl)-L-lysine, O=C(NCCCC[C@H](N[*:1])C(=O)[*:2])N1CCN(CC(=O)[*:3])CC1; pBph2F = (S)-2-amino-3-(2-fluoro-[1,1'-biphenyl]-4-yl)propanoic acid, O=C([C@H](Cc1ccc(-c2ccccc2)c(F)c1)N[*:1])[*:2]; X6 = N=C(N)NCCC[C@H](CC(=O)[C@H](CCCCNC(=O)N1CCN(CC(=O)O)CC1)N[*:2])C(=O)C[C@@H](Cc1ccc(-c2ccccc2)nc1)C(=O)[*:1]; X4 = O=C(O)c1ccc(C[C@H](N[*:1])C(=O)C[C@@H](CO)C(=O)[*:2])cc1; Phe(4-guanidino) = N=C(N)Nc1ccc(C[C@H](N)C(=O)O)cc1; 3Pal(6-Ph) = N[C@@H](Cc1ccc(-c2ccccc2)nc1)C(=O)O; Phe(4-COOH) = N[C@@H](Cc1ccc(C(=O)O)cc1)C(=O)O; NMePhe(4-Me) = CN[C@@H](Cc1ccc(C)cc1)C(=O)O; Piperazinyl(4-CH2COOH) = O=C(O)CN1CCN(*)CC1; Bip = N[C@@H](Cc1ccc(-c2ccccc2)cc1)C(=O)O; Phe(4-F) = N[C@@H](Cc1ccc(F)cc1)C(=O)O; Ala(4-THP) = N[C@@H](CC1CCOCC1)C(=O)O; hTyr = N[C@@H](CCc1ccc(O)cc1)C(=O)O; Hyp = O=C(O)[C@@H]1C[C@@H](O)CN1; NMeF = CN[C@@H](Cc1ccccc1)C(=O)O; hCit = NC(=O)NCCCC[C@H](N)C(=O)O; Cha = N[C@@H](CC1CCCCC1)C(=O)O; X5 = O=C(C[*:1])[*:2]; CO = O=C([*:1])[*:2]; ξC = NC(CS)C(=O)O; βAla = NCCC(=O)O

Legend:
[1] = molecular target: T1, BMP4 (Homo sapiens, UniProt P12644); test: BMP4 signal transduction inhibitory activity: SMAD1 phosphorylation by BMP4 stimulus, AlphaLISA SureFire, A549 cells; format: cell-based; conditions: for aLISA BMP4: A549 cells; for aLIZA BMP4 (0.2 nM) % Inh: SMAD1 phosphorylation by BMP4 stimulus; for aLISA BMP4 (0.2 nM) % inh: peptide conc. in assay 0.2, 2, 20 nM
T1 sequence (P12644 293-408): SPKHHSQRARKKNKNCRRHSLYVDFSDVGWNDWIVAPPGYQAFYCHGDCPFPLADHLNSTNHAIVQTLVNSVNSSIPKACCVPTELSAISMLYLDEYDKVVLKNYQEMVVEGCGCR

[2] = molecular target: T2, BMP7 (Homo sapiens, UniProt P18075); test: BMP7 signal transduction inhibitory activity: SMAD1 phosphorylation by BMP7 stimulus, A549 cells; format: cell-based; conditions: for aLISA BMP7: A549 cells; for aLIZA BMP7 (10 nM) % Inh: SMAD1 phosphorylation by BMP7 stimulus; for aLISA BMP7 (10 nM) % inh: peptide conc. in assay 1, 10, 100 nM
T2 sequence (P18075 293-431): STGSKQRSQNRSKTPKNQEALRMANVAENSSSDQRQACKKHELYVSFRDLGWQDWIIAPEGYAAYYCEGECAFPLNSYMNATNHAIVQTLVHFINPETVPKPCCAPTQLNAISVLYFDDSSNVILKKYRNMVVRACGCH
How it was run: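 A549 cells were stimulated with 10 nM BMP7, and peptide inhibition of signalling was measured as SMAD1 phosphorylation. Peptides were tested at three concentrations, in sets ranging from 1–100 nM to 100–1,000 nM, or as eight-point 1/3 dilution series starting at 100 nM or 1,000 nM.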

[3] = inhibition of SMAD1 phosphorylation by BMP4 stimulus, peptides of Synthesis 1, classes D-F, ND
[4] = inhibition of SMAD1 phosphorylation by BMP7 stimulus, peptides of Synthesis 1, classes E, F, ND
[5] = SMAD1 phosphorylation, peptides of Synthesis 2, peptide 0.02, 0.2, 2 nM
[6] = 10 nM BMP7, peptides of Synthesis 2, peptide 1, 10, 100 nM
[7] = peptide conc. in assay 0.02, 0.2, 2 nM, class symbols
[8] = peptide conc. in assay 10, 100, 1000 nM, class symbols
[9] = inhibition of SMAD1 phosphorylation by BMP4 stimulus, peptides of Synthesis 2, classes A-C, ND
[10] = inhibition of SMAD1 phosphorylation by BMP7 stimulus, peptides of Synthesis 2, classes A-D, ND
[11] = SMAD1 phosphorylation, BMP4 0.2 nM
[12] = SMAD1 phosphorylation, BMP7 10 nM

Compound: 134 ({CH2CO}-ERVYVD[Phe(4-guanidino)][Bip]PYV[Bip]Y[Phe(4-COOH)][Phe(4-COOH)]SCG-NH2; thioether N-17; not fully specified) [compound 134]
- aLISA BMP4 [1, 3]: E (showed less than 50% of inhibitory activity in 0.2 nM-addition zone and showed 50% or more of inhibitory activity in 2 nM-addition zone)
- aLISA BMP7 [2, 4]: E (showed 50% or more of inhibitory activity in a zone to which the peptide was added in an amount of 10 nM)

Compound: CC(C)[C@@H]1NC(=O)[C@H](Cc2ccc(C(=O)O)cc2)NC(=O)[C@H](C(C)C)NC(=O)[C@H](CCCNC(=N)N)NC(=O)[C@H](CCC(=O)O)NC(=O)CSCC(C(=O)NCC(N)=O)NC(=O)[C@H](CO)CC(=O)[C@H](Cc2ccc(C(=O)O)cc2)NC(=O)[C@H](Cc2ccc(C(=O)O)cc2)NC(=O)[C@H](Cc2ccc(O)cc2)NC(=O)[C@H](Cc2ccc(-c3ccccc3)cc2)NC(=O)[C@@H]2C[C@@H](O)CN2C(=O)[C@H](Cc2ccc(O)cc2)NC(=O)[C@H](CCCCNC(=O)N2CCN(CC(=O)O)CC2)NC(=O)[C@H](Cc2ccc(-c3ccccc3)nc2)CC(=O)[C@H](CCCNC(=N)N)CC(=O)[C@H](CCCCNC(=O)N2CCN(CC(=O)O)CC2)NC1=O (stereo partly drawn) [SEQ ID No. 277, ClAc-E-R-V-F4COO-V-KCOpipzaa-R-3Py6Ph-KCOpipzaa-Y-Hyp-Bph-Y-F4COO-F4COO-S-C-G-NH2] (I: K([CO-Piperazinyl(4-CH2COOH)])Y[Hyp][Bip]Y[Phe(4-COOH)][X4][ξC]G-NH2 / II: ERV[Phe(4-COOH)]V; linker I:8-II:N via X5; linker I:N-II:C via X6)
- BMP4 inhibitory activity (in words) [1]: same level of the BMP4 inhibitory activity as Noggin
- aLISA BMP4 [1, 5]: A (showed an inhibitory activity of 50% or more in a zone to which the peptide was added to in an amount of 0.2 nM)
- aLISA BMP7 [2, 6]: C (showed less than 50% of inhibitory activity in 10 nM-addition zone and showed 50% or more of inhibitory activity in 100 nM-addition zone)

Compound: 254 (ERVYVSR[3Pal(6-Ph)]S[hTyr]V[Bip]Y[Phe(4-COOH)][Phe(4-COOH)]SCG-NH2; not fully specified) [compound 254]
- aLIZA BMP4 (0.2 nM) % Inh [1, 7]: C (showed less than 30% of inhibitory activity in 0.2 nM-addition zone and showed 30% or more of inhibitory activity in 2 nM-addition zone)
- aLIZA BMP7 (10 nM) % Inh [2, 8]: ND (the inhibitory activity was less than 30% at the maximum concentration evaluated)

Compound: 18 ({CH2CO}-ARVYVDR[Bip]SYP[Bip]Y[Phe(4-COOH)][Phe(4-COOH)]SCG-NH2; thioether N-17; not fully specified) [compound 18]
- aLISA BMP4 [1, 5]: A (showed an inhibitory activity of 50% or more in a zone to which the peptide was added to in an amount of 0.2 nM)
- aLISA BMP7 [2, 6]: C (showed less than 50% of inhibitory activity in 10 nM-addition zone and showed 50% or more of inhibitory activity in 100 nM-addition zone)

Compound: 101 ({CH2CO}-E[KCOpipzaa]VYV[KCOpipzaa]R[3Pal(6-Ph)]SYP[Bip]Y[Phe(4-COOH)][Phe(4-COOH)]SC[βAla][dE]-OH; thioether N-17; not fully specified) [compound 101]
- aLISA BMP4 [1, 9]: A (showed an inhibitory activity of 50% or more in a zone to which the peptide was added to in an amount of 0.2 nM)
- aLISA BMP7 [2, 10]: C (showed less than 50% of inhibitory activity in 10 nM-addition zone and showed 50% or more of inhibitory activity in 100 nM-addition zone)

Compound: 369 (FG[NMeF]GFGDE[Cha]Q[NMeF]L[Phe(4-COOH)]CG-NH2; not fully specified (N-terminus, bridges)) [compound 369]
- aLISA BMP4 (0.2 nM) % inh [1, 11]: ND (the inhibitory activity was less than 30% at the maximum concentration evaluated)
- aLISA BMP7 (10 nM) % inh [2, 12]: D (showed less than 30% of inhibitory activity in 10 nM-addition zone and showed 30% or more of inhibitory activity in 100 nM-addition zone)

Compound: 250 (ERVYVDR[3Pal(6-Ph)]HYV[Bip]Y[Phe(4-COOH)][Phe(4-COOH)]SCG-NH2; not fully specified) [compound 250]
- aLIZA BMP4 (0.2 nM) % Inh [1, 7]: C (showed less than 30% of inhibitory activity in 0.2 nM-addition zone and showed 30% or more of inhibitory activity in 2 nM-addition zone)
- aLIZA BMP7 (10 nM) % Inh [2, 8]: E (showed less than 30% of inhibitory activity in 100 nM-addition zone and showed 30% or more of inhibitory activity in 1,000 nM-addition zone)

Compound: 396 ([Phe(4-F)]G[NMeF]G[Bip]GDD[Cha]A[NMePhe(4-Me)]LHCG-NH2; not fully specified) [compound 396]
- aLISA BMP4 (0.2 nM) % inh ([1]; BMP4 0.2 nM stimulus): A (showed less than 30% of inhibitory activity in 2 nM-peptide-addition zone and showed 30% or more of inhibitory activity in 20 nM-addition zone)
- aLISA BMP7 (10 nM) % inh ([2]; BMP7 10 nM stimulus): C (showed less than 30% of inhibitory activity in a zone to which the peptide was added in an amount of 1 nM and showed 30% or more of inhibitory activity in 10 nM-addition zone)

Compound: 302 (ERV[Phe(4-COOH)]V[KCOpipzaa]R[3Pal(6-Ph)][KCOpipzaa]Y[Hyp][pBph2F]Y[Phe(4-COOH)][Phe(4-COOH)]SCG-NH2; not fully specified (N-terminus, bridges); also: cyclic peptide, ring closure not given here) [compound 302]
- aLIZA BMP4 (0.2 nM) % inh ([1]; BMP4 0.2 nM stimulus, peptide conc. in assay 0.02, 0.2, 2 nM, class symbols): C (showed less than 30% of inhibitory activity in 0.2 nM-addition zone and showed 30% or more of inhibitory activity in 2 nM-addition zone)
- aLIZA BMP7 (10 nM) % inh ([2]; BMP7 10 nM stimulus, peptide conc. in assay 10, 100, 1000 nM, class symbols): E (showed less than 30% of inhibitory activity in 100 nM-addition zone and showed 30% or more of inhibitory activity in 1,000 nM-addition zone)

Compound: 53 (Ac-ERVYVDR[Bip]PYP[Bip]Y[Phe(4-COOH)][Phe(4-COOH)]SCG-NH2; thioether (positions not given here); not fully specified (bridges)) [compound 53]
- aLISA BMP4 ([1]; inhibition of SMAD1 phosphorylation by BMP4 stimulus, AlphaLISA, class by peptide concentration zone): A (showed an inhibitory activity of 50% or more in a zone to which the peptide was added to in an amount of 0.2 nM)
- aLISA BMP7 ([2]; inhibition of SMAD1 phosphorylation by BMP7 stimulus, AlphaLISA, class by peptide concentration zone): ND (the inhibitory activity was less than 30% at the maximum concentration evaluated)

Compound: 349 (FG[NMeF]G[Bip]GDD[Cha]A[NMeF]LLCG-NH2; not fully specified (N-terminus, bridges)) [compound 349]
- aLISA BMP4 (0.2 nM) % inh [1, 11]: ND (the inhibitory activity was less than 30% at the maximum concentration evaluated)
- aLISA BMP7 (10 nM) % inh [2, 12]: D (showed less than 30% of inhibitory activity in 10 nM-addition zone and showed 30% or more of inhibitory activity in 100 nM-addition zone)

Compound: 362 (FG[NMeF]GFGDE[Cha]A[NMeF]LHCG-NH2; not fully specified (N-terminus, bridges)) [compound 362]
- aLISA BMP4 (0.2 nM) % inh [1, 11]: ND (the inhibitory activity was less than 30% at the maximum concentration evaluated)
- aLISA BMP7 (10 nM) % inh [2, 12]: D (showed less than 30% of inhibitory activity in 10 nM-addition zone and showed 30% or more of inhibitory activity in 100 nM-addition zone)

Compound: 145 ({CH2CO}-ERVYVDR[Bip]PY[hCit][Bip]Y[Phe(4-COOH)][Phe(4-COOH)]SCG-NH2; thioether N-17; not fully specified) [compound 145]
- aLISA BMP4 [1, 3]: D (showed 50% or more of inhibitory activity in 0.2 nM-addition zone)
- aLISA BMP7 [2, 4]: E (showed 50% or more of inhibitory activity in a zone to which the peptide was added in an amount of 10 nM)

Compound: 310 (ERV[Phe(4-COOH)][Ala(4-THP)][KCOpipzaa]R[3Pal(6-Ph)][KCOpipzaa]Y[Hyp][Bip]Y[Phe(4-COOH)][Phe(4-COOH)]SCG-NH2; not fully specified (N-terminus, bridges); also: cyclic peptide, ring closure not given here) [compound 310]
- aLIZA BMP4 (0.2 nM) % inh ([1]; BMP4 0.2 nM, peptide 0.02, 0.2, 2 nM, Table 6): C (showed less than 30% of inhibitory activity in 0.2 nM-addition zone and showed 30% or more of inhibitory activity in 2 nM-addition zone)
- aLIZA BMP7 (10 nM) % inh ([2]; BMP7 10 nM, peptide 10, 100, 1000 nM, Table 6): E (showed less than 30% of inhibitory activity in 100 nM-addition zone and showed 30% or more of inhibitory activity in 1,000 nM-addition zone)

Compound: 85 ({CH2CO}-ERVYVDR[Bip]SYV[Bip]Y[Phe(4-COOH)][Phe(4-COOH)]SC[βAla][dE]-OH; thioether N-17; not fully specified) [compound 85]
- aLISA BMP4 [1, 9]: A (showed an inhibitory activity of 50% or more in a zone to which the peptide was added to in an amount of 0.2 nM)
- aLISA BMP7 [2, 10]: C (showed less than 50% of inhibitory activity in 10 nM-addition zone and showed 50% or more of inhibitory activity in 100 nM-addition zone)
